# Data from the supplement of paper PMC9876800.
# Tested on: peptide library, one residue held at a place counted from the S/T acceptor
# Experiment: relative phosphorylation of the sub-library (ratio to the mean residue at this position); human; higher = residue favoured
# Settings: L fixed; at +3
# In short: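 In 384-well plates, purified recombinant kinases (human or orthologue constructs) were incubated for 90 min under kinase-specific conditions with 50 μM biotinylated degenerate peptide sub-libraries and 50 μM ATP spiked with γ-32P-ATP. Each sub-library fixed a single residue at one position around a central Ser/Thr. Relative sub-library phosphorylation, measured by phosphorimaging and densitometry of streptavidin membrane spots, is given as a ratio to the mean residue at that position.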
# NEK6, construct: Full length, sequence (Q9HC98 whole entry, looked up): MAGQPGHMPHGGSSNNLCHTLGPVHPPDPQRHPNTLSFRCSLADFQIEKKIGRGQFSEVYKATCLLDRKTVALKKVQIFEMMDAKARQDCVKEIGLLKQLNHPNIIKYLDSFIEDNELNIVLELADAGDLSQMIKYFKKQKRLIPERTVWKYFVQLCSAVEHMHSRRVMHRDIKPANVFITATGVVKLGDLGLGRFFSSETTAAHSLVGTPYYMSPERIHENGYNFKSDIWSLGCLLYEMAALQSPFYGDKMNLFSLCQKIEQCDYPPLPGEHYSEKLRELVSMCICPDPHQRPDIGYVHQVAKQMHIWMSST
# IKBKE, construct: Full length, sequence (Q14164 whole entry, looked up): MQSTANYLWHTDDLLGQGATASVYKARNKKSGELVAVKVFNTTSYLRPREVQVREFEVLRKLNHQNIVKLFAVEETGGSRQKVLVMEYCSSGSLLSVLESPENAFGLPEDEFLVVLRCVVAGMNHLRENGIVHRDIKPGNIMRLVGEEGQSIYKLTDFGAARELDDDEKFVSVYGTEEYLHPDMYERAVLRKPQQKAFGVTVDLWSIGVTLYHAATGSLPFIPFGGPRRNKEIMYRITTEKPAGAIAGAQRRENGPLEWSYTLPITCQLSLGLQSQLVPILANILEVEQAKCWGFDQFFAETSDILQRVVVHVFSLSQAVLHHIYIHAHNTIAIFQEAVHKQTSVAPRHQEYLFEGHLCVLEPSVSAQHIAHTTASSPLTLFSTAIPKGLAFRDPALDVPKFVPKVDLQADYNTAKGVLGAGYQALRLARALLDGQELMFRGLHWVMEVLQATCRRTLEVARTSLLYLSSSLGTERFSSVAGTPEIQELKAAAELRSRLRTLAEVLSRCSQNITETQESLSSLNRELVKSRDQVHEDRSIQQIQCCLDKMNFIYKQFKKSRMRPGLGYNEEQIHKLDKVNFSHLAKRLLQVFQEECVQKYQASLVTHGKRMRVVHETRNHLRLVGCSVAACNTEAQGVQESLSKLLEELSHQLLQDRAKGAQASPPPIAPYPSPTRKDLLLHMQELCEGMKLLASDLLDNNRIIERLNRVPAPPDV
# SLK, construct: Full length, sequence (Q9H2G2 whole entry, looked up): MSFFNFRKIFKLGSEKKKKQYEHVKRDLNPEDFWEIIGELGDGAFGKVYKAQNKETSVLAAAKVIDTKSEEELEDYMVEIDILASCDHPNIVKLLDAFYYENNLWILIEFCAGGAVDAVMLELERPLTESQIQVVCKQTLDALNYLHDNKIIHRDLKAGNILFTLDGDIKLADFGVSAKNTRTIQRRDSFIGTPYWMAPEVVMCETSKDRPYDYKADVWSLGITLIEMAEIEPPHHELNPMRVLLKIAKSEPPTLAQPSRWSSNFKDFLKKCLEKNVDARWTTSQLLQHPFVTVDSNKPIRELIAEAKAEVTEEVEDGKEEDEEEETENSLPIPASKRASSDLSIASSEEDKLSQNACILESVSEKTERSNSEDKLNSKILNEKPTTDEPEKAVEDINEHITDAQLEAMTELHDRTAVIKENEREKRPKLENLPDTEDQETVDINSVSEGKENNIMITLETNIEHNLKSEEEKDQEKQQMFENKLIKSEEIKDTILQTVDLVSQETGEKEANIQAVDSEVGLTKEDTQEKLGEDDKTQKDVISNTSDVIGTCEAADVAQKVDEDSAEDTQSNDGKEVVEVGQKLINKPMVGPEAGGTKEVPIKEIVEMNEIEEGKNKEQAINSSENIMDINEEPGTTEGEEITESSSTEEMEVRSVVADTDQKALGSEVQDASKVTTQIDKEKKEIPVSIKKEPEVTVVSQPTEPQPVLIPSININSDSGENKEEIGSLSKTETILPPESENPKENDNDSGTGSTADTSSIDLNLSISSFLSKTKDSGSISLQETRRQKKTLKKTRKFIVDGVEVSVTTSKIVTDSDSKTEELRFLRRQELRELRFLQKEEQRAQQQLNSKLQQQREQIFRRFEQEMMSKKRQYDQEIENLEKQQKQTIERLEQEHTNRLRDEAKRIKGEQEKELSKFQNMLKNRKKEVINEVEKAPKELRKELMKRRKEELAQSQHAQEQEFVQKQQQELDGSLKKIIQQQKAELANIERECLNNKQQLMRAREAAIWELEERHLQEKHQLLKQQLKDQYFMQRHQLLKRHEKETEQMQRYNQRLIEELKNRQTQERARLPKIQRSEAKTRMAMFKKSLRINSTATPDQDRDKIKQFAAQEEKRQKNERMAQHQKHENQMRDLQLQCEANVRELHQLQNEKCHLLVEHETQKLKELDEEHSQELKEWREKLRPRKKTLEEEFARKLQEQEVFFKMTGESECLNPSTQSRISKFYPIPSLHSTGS
# SIK3, construct: aa1-307, sequence (Q9Y2K2 1-307, looked up): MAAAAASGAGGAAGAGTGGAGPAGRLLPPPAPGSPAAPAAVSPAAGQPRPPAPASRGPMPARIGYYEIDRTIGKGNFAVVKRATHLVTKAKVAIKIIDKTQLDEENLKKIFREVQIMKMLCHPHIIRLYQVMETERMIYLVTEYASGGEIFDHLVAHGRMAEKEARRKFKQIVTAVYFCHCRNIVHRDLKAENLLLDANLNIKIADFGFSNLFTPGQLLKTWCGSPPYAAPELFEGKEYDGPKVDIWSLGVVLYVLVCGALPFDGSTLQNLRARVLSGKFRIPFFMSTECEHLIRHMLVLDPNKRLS
# CDK10, construct: Full length, sequence (Q15131 whole entry, looked up): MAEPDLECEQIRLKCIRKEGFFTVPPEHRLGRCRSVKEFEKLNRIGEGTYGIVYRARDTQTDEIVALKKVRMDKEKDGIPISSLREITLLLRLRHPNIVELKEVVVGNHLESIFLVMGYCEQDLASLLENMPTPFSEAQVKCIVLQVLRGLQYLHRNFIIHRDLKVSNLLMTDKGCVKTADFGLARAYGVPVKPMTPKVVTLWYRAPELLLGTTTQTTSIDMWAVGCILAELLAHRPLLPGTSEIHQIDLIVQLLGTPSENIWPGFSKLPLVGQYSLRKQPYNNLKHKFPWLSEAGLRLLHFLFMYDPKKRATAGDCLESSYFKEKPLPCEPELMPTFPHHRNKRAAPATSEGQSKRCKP
# MAP4K5, construct: Full length, sequence (Q9Y4K4 whole entry, looked up): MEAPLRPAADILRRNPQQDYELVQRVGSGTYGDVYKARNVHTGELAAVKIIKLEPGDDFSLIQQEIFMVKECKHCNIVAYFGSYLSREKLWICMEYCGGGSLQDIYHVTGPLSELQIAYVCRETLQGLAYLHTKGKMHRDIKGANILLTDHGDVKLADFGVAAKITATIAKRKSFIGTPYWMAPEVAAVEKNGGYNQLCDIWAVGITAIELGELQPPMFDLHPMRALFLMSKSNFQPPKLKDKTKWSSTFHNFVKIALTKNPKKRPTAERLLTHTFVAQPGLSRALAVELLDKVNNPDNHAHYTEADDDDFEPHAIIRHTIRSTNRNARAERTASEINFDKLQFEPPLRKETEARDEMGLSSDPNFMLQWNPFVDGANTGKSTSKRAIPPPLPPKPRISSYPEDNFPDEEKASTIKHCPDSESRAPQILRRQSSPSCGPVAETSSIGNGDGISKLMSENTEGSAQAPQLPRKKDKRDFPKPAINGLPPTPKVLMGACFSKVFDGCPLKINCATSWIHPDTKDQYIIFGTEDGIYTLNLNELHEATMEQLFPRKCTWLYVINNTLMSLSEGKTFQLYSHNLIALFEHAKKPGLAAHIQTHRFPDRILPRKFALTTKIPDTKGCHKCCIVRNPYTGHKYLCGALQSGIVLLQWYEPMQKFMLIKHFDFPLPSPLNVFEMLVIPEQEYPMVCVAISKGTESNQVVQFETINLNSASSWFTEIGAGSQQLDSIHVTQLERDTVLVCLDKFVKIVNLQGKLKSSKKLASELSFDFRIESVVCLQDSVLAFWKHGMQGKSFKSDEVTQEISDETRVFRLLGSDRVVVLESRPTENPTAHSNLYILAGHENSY
# TNIK, construct: aa1-314, sequence (Q9UKE5 1-314, looked up): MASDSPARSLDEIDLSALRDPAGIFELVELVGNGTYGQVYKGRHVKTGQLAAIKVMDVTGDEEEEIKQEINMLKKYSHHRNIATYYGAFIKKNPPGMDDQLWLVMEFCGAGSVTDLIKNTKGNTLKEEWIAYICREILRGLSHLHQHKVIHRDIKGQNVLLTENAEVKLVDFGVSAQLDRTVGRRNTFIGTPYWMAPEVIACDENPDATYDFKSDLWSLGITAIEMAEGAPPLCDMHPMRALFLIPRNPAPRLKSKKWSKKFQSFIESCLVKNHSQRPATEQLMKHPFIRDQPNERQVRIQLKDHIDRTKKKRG
row,Substance,relative phosphorylation
1,"SLK, construct: Full length (from UniProt Q9H2G2)",0.632
2,"CDK10, construct: Full length (from UniProt Q15131)",0.66

# Same assay, conditions: L fixed; at +4
row,Substance,relative phosphorylation
1,"PKN2, construct: aa501-984 (from UniProt Q16513)",0.785
2,"IKBKE, construct: Full length (from UniProt Q14164)",0.994
3,"MAP4K5, construct: Full length (from UniProt Q9Y4K4)",0.796
4,"NEK6, construct: Full length (from UniProt Q9HC98)",0.593
5,"SIK3, construct: aa1-307 (from UniProt Q9Y2K2)",4.53
6,"TNIK, construct: aa1-314 (from UniProt Q9UKE5)",0.636
7,"SLK, construct: Full length (from UniProt Q9H2G2)",0.8
8,"CDK10, construct: Full length (from UniProt Q15131)",0.661

# Same assay, conditions: L fixed; at -1
row,Substance,relative phosphorylation
1,"PKN2, construct: aa501-984 (from UniProt Q16513)",0.833
2,"IKBKE, construct: Full length (from UniProt Q14164)",1.18
3,"MAP4K5, construct: Full length (from UniProt Q9Y4K4)",0.816
4,"NEK6, construct: Full length (from UniProt Q9HC98)",0.72
5,"SIK3, construct: aa1-307 (from UniProt Q9Y2K2)",0.691
6,"TNIK, construct: aa1-314 (from UniProt Q9UKE5)",0.803
7,"SLK, construct: Full length (from UniProt Q9H2G2)",0.881
8,"CDK10, construct: Full length (from UniProt Q15131)",0.787

# Same assay, conditions: L fixed; at -2
row,Substance,relative phosphorylation
1,"PKN2, construct: aa501-984 (from UniProt Q16513)",0.571
2,"IKBKE, construct: Full length (from UniProt Q14164)",1.11
3,"MAP4K5, construct: Full length (from UniProt Q9Y4K4)",0.636
4,"NEK6, construct: Full length (from UniProt Q9HC98)",0.612
5,"SIK3, construct: aa1-307 (from UniProt Q9Y2K2)",0.364
6,"TNIK, construct: aa1-314 (from UniProt Q9UKE5)",0.595
7,"SLK, construct: Full length (from UniProt Q9H2G2)",0.357
8,"CDK10, construct: Full length (from UniProt Q15131)",1.15

# Same assay, conditions: L fixed; at -3
row,Substance,relative phosphorylation
1,"PKN2, construct: aa501-984 (from UniProt Q16513)",0.61
2,"IKBKE, construct: Full length (from UniProt Q14164)",0.743
3,"MAP4K5, construct: Full length (from UniProt Q9Y4K4)",0.628
4,"NEK6, construct: Full length (from UniProt Q9HC98)",2.04
5,"SIK3, construct: aa1-307 (from UniProt Q9Y2K2)",0.497
6,"TNIK, construct: aa1-314 (from UniProt Q9UKE5)",0.67
7,"SLK, construct: Full length (from UniProt Q9H2G2)",0.386
8,"CDK10, construct: Full length (from UniProt Q15131)",0.78

# Same assay, conditions: L fixed; at -4
row,Substance,relative phosphorylation
1,"PKN2, construct: aa501-984 (from UniProt Q16513)",0.804
2,"IKBKE, construct: Full length (from UniProt Q14164)",0.94
3,"MAP4K5, construct: Full length (from UniProt Q9Y4K4)",0.76
4,"NEK6, construct: Full length (from UniProt Q9HC98)",0.735
5,"SIK3, construct: aa1-307 (from UniProt Q9Y2K2)",0.662
6,"TNIK, construct: aa1-314 (from UniProt Q9UKE5)",0.751
7,"SLK, construct: Full length (from UniProt Q9H2G2)",0.706
8,"CDK10, construct: Full length (from UniProt Q15131)",0.658

# Same assay, conditions: L fixed; at -5
row,Substance,relative phosphorylation
1,"PKN2, construct: aa501-984 (from UniProt Q16513)",1.34
